System: Escherichia coli TOP10
Assay: shrunken log2 fold change of peptide-encoding DNA abundance (4.5 h post-induction vs induction); higher = less antimicrobial activity (less host growth inhibition)
Conditions: time post-induction: 4.5 h; library: site-saturation at positions 5, 18, 19, 20
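Also: peptides expressed intracellularly from a pBAD plasmid library in pooled LB shake-flask culture, induced with 0.3% L-arabinose, DNA abundance read by NGS, three biological replicates, DESeq2 with apeglm shrinkage.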

Row | Sequence | shrunken log2 fold change
1 | RRIRERPPRLPRPRPRPCMMPRP | -0.058
2 | RRIRQRPPRLPRPRPRPFQPPRP | 0.0592
3 | RRIRDRPPRLPRPRPRPAVYPRP | -0.097
4 | RRIRYRPPRLPRPRPRPRDEPRP | 0.047
5 | RRIRVRPPRLPRPRPRPDKVPRP | -0.332
6 | RRIRIRPPRLPRPRPRPFQEPRP | -0.0383
7 | RRIRHRPPRLPRPRPRPYSDPRP | -1.17
8 | RRIRCRPPRLPRPRPRPMENPRP | 0.0267
9 | RRIRARPPRLPRPRPRPAWEPRP | 0.925
10 | RRIRTRPPRLPRPRPRPDCQPRP | -0.107
11 | RRIRRRPPRLPRPRPRPPSTPRP | 0.585
12 | RRIRCRPPRLPRPRPRPSVYPRP | -0.697
13 | RRIRKRPPRLPRPRPRPLAIPRP | 0.0828
14 | RRIRTRPPRLPRPRPRPEHEPRP | -0.109
15 | RRIRHRPPRLPRPRPRPQCKPRP | -0.161
16 | RRIRIRPPRLPRPRPRPRIEPRP | -0.246
17 | RRIRFRPPRLPRPRPRPSSHPRP | -0.682
18 | RRIRSRPPRLPRPRPRPMWRPRP | 0.1
19 | RRIRVRPPRLPRPRPRPEDSPRP | 0.0654
20 | RRIRARPPRLPRPRPRPYTKPRP | -0.156
21 | RRIRFRPPRLPRPRPRPCCNPRP | -0.0548
22 | RRIRERPPRLPRPRPRPTDIPRP | -0.0479
23 | RRIRNRPPRLPRPRPRPHCVPRP | 0.0245
24 | RRIRNRPPRLPRPRPRPDCSPRP | -0.224
25 | RRIRPRPPRLPRPRPRPARIPRP | 0.14

Row | Sequence | shrunken log2 fold change
26 | RRIRMRPPRLPRPRPRPRDAPRP | 1.49
27 | RRIRARPPRLPRPRPRPCDWPRP | 0.353
28 | RRIRLRPPRLPRPRPRPQAIPRP | -0.152
29 | RRIRSRPPRLPRPRPRPGKVPRP | -0.0472
30 | RRIRYRPPRLPRPRPRPWKLPRP | -0.121
31 | RRIRLRPPRLPRPRPRPYIIPRP | -0.217
32 | RRIRQRPPRLPRPRPRPTLWPRP | 0.0794
33 | RRIRVRPPRLPRPRPRPLQYPRP | 1.72
34 | RRIRRRPPRLPRPRPRPNHNPRP | -0.329
35 | RRIRGRPPRLPRPRPRPLCSPRP | 0.496
36 | RRIRYRPPRLPRPRPRPLQGPRP | -0.0139
37 | RRIRGRPPRLPRPRPRPSWRPRP | 0.477
38 | RRIRHRPPRLPRPRPRPRGCPRP | 0.387
39 | RRIRGRPPRLPRPRPRPKESPRP | 0.981
40 | RRIRPRPPRLPRPRPRPKQHPRP | -0.0393
41 | RRIRHRPPRLPRPRPRPKWKPRP | 0.107
42 | RRIRFRPPRLPRPRPRPGGSPRP | -0.0392
43 | RRIRMRPPRLPRPRPRPDRQPRP | 0.239
44 | RRIRDRPPRLPRPRPRPQIRPRP | -0.222
45 | RRIRIRPPRLPRPRPRPACTPRP | 0.242
46 | RRIRCRPPRLPRPRPRPAYLPRP | -0.247
47 | RRIRERPPRLPRPRPRPVEIPRP | -0.0716
48 | RRIRVRPPRLPRPRPRPKIQPRP | -0.0896
49 | RRIRYRPPRLPRPRPRPIHQPRP | -0.0218
50 | RRIRCRPPRLPRPRPRPWEYPRP | 0.0155

Row | Sequence | shrunken log2 fold change
51 | RRIRPRPPRLPRPRPRPIEHPRP | -0.186
52 | RRIRERPPRLPRPRPRPCWWPRP | 0.288
53 | RRIRPRPPRLPRPRPRPVDDPRP | 0.103
54 | RRIRYRPPRLPRPRPRPQLTPRP | -0.0894
55 | RRIRARPPRLPRPRPRPRTYPRP | -0.126
56 | RRIRWRPPRLPRPRPRPKSVPRP | -0.0882
57 | RRIRQRPPRLPRPRPRPHGSPRP | -0.00277
58 | RRIRARPPRLPRPRPRPRTLPRP | 0.226
59 | RRIRVRPPRLPRPRPRPVWKPRP | 0.0859
60 | RRIRARPPRLPRPRPRPRTSPRP | 0.382
61 | RRIRARPPRLPRPRPRPWYEPRP | -0.0297
62 | RRIRQRPPRLPRPRPRPQSAPRP | -0.08
63 | RRIRQRPPRLPRPRPRPWFMPRP | -1.08
64 | RRIRYRPPRLPRPRPRPSMLPRP | -1.07
65 | RRIRLRPPRLPRPRPRPSVDPRP | -0.462
66 | RRIRPRPPRLPRPRPRPGHYPRP | -0.0973
67 | RRIRIRPPRLPRPRPRPTTYPRP | -0.868
68 | RRIRWRPPRLPRPRPRPSNMPRP | -0.923
69 | RRIRPRPPRLPRPRPRPIAPPRP | 0.265
70 | RRIRARPPRLPRPRPRPWNKPRP | -0.0945
71 | RRIRNRPPRLPRPRPRPGWLPRP | 0.174
72 | RRIRYRPPRLPRPRPRPDLYPRP | -0.0604
73 | RRIRIRPPRLPRPRPRPDVHPRP | -0.00757
74 | RRIRMRPPRLPRPRPRPQYLPRP | -0.0275
75 | RRIRERPPRLPRPRPRPLKTPRP | -0.457

Row | Sequence | shrunken log2 fold change
76 | RRIRFRPPRLPRPRPRPIFTPRP | -0.128
77 | RRIRNRPPRLPRPRPRPNHFPRP | -0.0479
78 | RRIRHRPPRLPRPRPRPGCMPRP | -0.0922
79 | RRIRNRPPRLPRPRPRPHLEPRP | 0.0549
80 | RRIRTRPPRLPRPRPRPSLHPRP | -0.604
81 | RRIRRRPPRLPRPRPRPDMPPRP | -0.0169
82 | RRIRHRPPRLPRPRPRPTFYPRP | -0.183
83 | RRIRPRPPRLPRPRPRPTHLPRP | 0.23
84 | RRIRGRPPRLPRPRPRPYNYPRP | -0.129
85 | RRIRIRPPRLPRPRPRPDTGPRP | -0.375
86 | RRIRIRPPRLPRPRPRPAPCPRP | -0.0838
87 | RRIRKRPPRLPRPRPRPKYMPRP | -0.0337
88 | RRIRKRPPRLPRPRPRPLTPPRP | 0.658
89 | RRIRFRPPRLPRPRPRPDDCPRP | 0.014
90 | RRIRCRPPRLPRPRPRPIIIPRP | -0.816
91 | RRIRLRPPRLPRPRPRPPCPPRP | 0.316
92 | RRIRPRPPRLPRPRPRPDFIPRP | -0.233
93 | RRIRLRPPRLPRPRPRPCHPPRP | 0.159
94 | RRIRTRPPRLPRPRPRPVVCPRP | 0.0187
95 | RRIRNRPPRLPRPRPRPEIWPRP | 0.0992
96 | RRIRWRPPRLPRPRPRPTLSPRP | 0.3
97 | RRIRPRPPRLPRPRPRPLPCPRP | -0.407
98 | RRIRTRPPRLPRPRPRPNICPRP | 0.00449
99 | RRIRGRPPRLPRPRPRPMNGPRP | 0.00709
100 | RRIRSRPPRLPRPRPRPEWRPRP | 0.478

Row | Sequence | shrunken log2 fold change
101 | RRIRKRPPRLPRPRPRPPRTPRP | 0.829
102 | RRIRCRPPRLPRPRPRPEPHPRP | 0.489
103 | RRIRGRPPRLPRPRPRPFPGPRP | 0.0889
104 | RRIRDRPPRLPRPRPRPKWFPRP | -0.0316
105 | RRIRFRPPRLPRPRPRPKERPRP | 0.193
106 | RRIRCRPPRLPRPRPRPWYSPRP | -0.361
107 | RRIRQRPPRLPRPRPRPMPVPRP | -0.00339
108 | RRIRSRPPRLPRPRPRPIPQPRP | -0.402
109 | RRIRSRPPRLPRPRPRPKLTPRP | -0.06
110 | RRIRRRPPRLPRPRPRPCHEPRP | -0.0891
111 | RRIRGRPPRLPRPRPRPKTEPRP | 0.713
112 | RRIRKRPPRLPRPRPRPWTRPRP | -0.0844
113 | RRIRSRPPRLPRPRPRPPGQPRP | 0.4
114 | RRIRHRPPRLPRPRPRPNDLPRP | 0.0529
115 | RRIRMRPPRLPRPRPRPQGNPRP | -0.0324
116 | RRIRLRPPRLPRPRPRPVCGPRP | 0.227
117 | RRIRRRPPRLPRPRPRPDKKPRP | 0.0135
118 | RRIRCRPPRLPRPRPRPANNPRP | -0.409
119 | RRIRDRPPRLPRPRPRPDPIPRP | 0.278
120 | RRIRCRPPRLPRPRPRPTPNPRP | 0.786
121 | RRIRGRPPRLPRPRPRPSFSPRP | 0.154
122 | RRIRLRPPRLPRPRPRPQYMPRP | -0.0107
123 | RRIRYRPPRLPRPRPRPNIYPRP | -0.68
124 | RRIRLRPPRLPRPRPRPNMLPRP | -0.58
125 | RRIRNRPPRLPRPRPRPPEGPRP | 1.62

— the supplement of paper PMC9112550, “Optimization of the antimicrobial peptide Bac7 by deep mutational scanning” (BMC Biology, 2022)
